Results from US12448429B2, “T cell receptors specific to b-cell maturation antigen for treatment of cancer” (Dana-Farber Cancer Institute, Inc., priority 2019, dated 2025).

How the values were obtained:
HLA-A2 [1] = target: T1, HLA-A2 (Homo sapiens, UniProt P04439, D140Y/D185E/D98H/E176V/E277Q/G131W/G231S/I119V/I121R/I166T/I218V/L300P/L318F/N151K/N90K/P208A/P217A/Q86G/Q94H/R138H/R169H/T345S); test: HLA-A2 binding affinity of BCMA peptides on T2 cells (HLA-A2 up-regulation, MFI by flow cytometry); conditions: for HLA-A2 binding affinity among the six native peptides: dose-dependent, Example 12; for HLA-A2 specificity (HLA-A2 binding capacity, MFI): six native BCMA peptides compared, T2 cells pulsed overnight with 0-200 μg/ml peptide, FIG. 2; for change of HLA-A2 binding affinity of heteroclitic peptide compared to its native peptide: T2 cells, FIG. 3, Example 12: n=3, p<0.05
T1 construct: endogenous in cells; host or cells: T2 cell line (human B and T cell hybrid), provided by Dr. J. Molldrem
Method: The listed BCMA peptides were evaluated for HLA-A2-specific binding capacity using the T2 cell line. In the assay, T2 cells were washed, resuspended in serum-free AIM-V medium to a final concentration of 1×10^6 cells/ml and transferred into wells of a 24-well tissue culture plate. The cells were pulsed with different concentrations of respective BCMA peptide (0-200 μg/ml) plus 3 μg/ml human […] (Sigma) and incubated at 37° C., 5% CO2 in humidified air. Following overnight incubation, the cells were washed, stained with mouse anti-human HLA-A2-FITC mAb for 15 minutes at 4° C., washed and analyzed using a FACSort™ flow cytometer with CellQuest™ v2.1 software (Becton Dickinson, San Jose, Calif.). […] Among the BCMA peptides evaluated, “#4. […] (FIG. 2).
(§1) The native and heteroclitic BCMA peptides were examined for HLA-A2 binding stability using the T2 cell line. T2 cells were pulsed with the respective peptide. After overnight incubation, the cells were washed to remove unbound peptide; they were evaluated for binding affinity as shown above and stability as following. The cells were incubated with 10 μg/ml Brefeldin A (Sigma) at 37° C. and 5% CO2 for 1 hour to block cell surface expression of newly synthesized HLA-A2 molecules. Peptide/HLA-A2 binding stability was evaluated at 0, 2, 4, 6 and 18 hours post-Brefeldin A treatment. Following the incubation period, the cells were harvested, washed, stained with mouse anti-human HLA-A2-FITC mAb and analyzed by flow cytometry. […] Therefore, the Heteroclitic #4 BCMA72-80 (YLMFLLRKI (SEQ ID NO: 37)) peptide was selected for further evaluation of its immunogenic potential to generate MM-specific cytotoxic T cells (CTLs).
(§2) T2 cells were pulsed overnight with various doses of peptide plus β2-microglobulin (3 μg/ml) (Sigma, St Louis, Mo.). Following overnight incubation, the cells were stained with HLA-A2-PE mAb and analyzed using a FACSCanto™ flow cytometer (BD). Peptide/HLA-A2 complex stability was measured on peptide loaded T2 cells at 0, 2, 4, 6 and 14 hours post-brefeldin A treatment by staining with HLA-A2-PE mAb and flow cytometric analysis.

HLA-A2 [2] = target: T1, HLA-A2; test: Peptide/HLA-A2 binding stability on peptide-pulsed T2 cells after Brefeldin A treatment; conditions: for HLA-A2 stability (and affinity) of heteroclitic peptides: 0, 2, 4, 6 and 14 hours post-brefeldin A, compared with native peptides and HIV-Gag77-85 positive control
Method: as §1, §2

[3] = listed as heteroclitic BCMA72-80

Row | Sequence | HLA-A2 binding affinity among the six native peptides (HLA-A2 [1]) | HLA-A2 specificity (HLA-A2 binding capacity, MFI) (HLA-A2 [1]) | change of HLA-A2 binding affinity of heteroclitic peptide compared to its native peptide (HLA-A2 [1]) | further results
1 | YLMFLLRKI [Heteroclitic #4 BCMA72-80] | – | – | increased from their native peptide | change of HLA-A2 binding affinity of heteroclitic peptide compared to its native peptide (HLA-A2 [1]; [3]): highest increase in HLA-A2 binding affinity; HLA-A2 stability (and affinity) of heteroclitic peptides (HLA-A2 [2]; listed as BCMA72-80 (YLMFLLRKI (SEQ ID NO: 37))): highest level of HLA-A2 affinity and stability; HLA-A2 stability (and affinity) of heteroclitic peptides (HLA-A2 [2]; [3]): further enhanced; HLA-A2 binding stability compared to the native peptide (HLA-A2 [2]; 0, 2, 4, 6 and 18 hours post-Brefeldin A, 50 ug/ml, FIG. 4): significant improvement
2 | YILWTCLGL [Heteroclitic #5 BCMA54-62] | – | – | increased from their native peptide | change of HLA-A2 binding affinity of heteroclitic peptide compared to its native peptide (HLA-A2 [1]; listed as heteroclitic hBCMA54-62): highest increase in HLA-A2 binding affinity; HLA-A2 stability (and affinity) of heteroclitic peptides (HLA-A2 [2]): further enhanced
3 | YQNEYFDSL [heteroclite BCMA9-17] | – | – | did not alter its HLA-A2 affinity status | –

More lines, main results first:

Row | HLA-A2 binding affinity among the six native peptides (HLA-A2 [1]) | HLA-A2 specificity (HLA-A2 binding capacity, MFI) (HLA-A2 [1]) | change of HLA-A2 binding affinity of heteroclitic peptide compared to its native peptide (HLA-A2 [1]) | Sequence | further results
4 | highest HLA-A2 binding affinity | highest level of HLA-A2 specificity | – | VLMFLLRKI [#4. BCMA72-80] | –
5 | highest HLA-A2 binding affinity | second highest level | – | AILWTCLGL [#5. BCMA54-62] | –
